B1: recombinant Psb27 (natural protein, T. elongatus, UniProt Q8DG60 22-134, looked up)
chain: CANVPTGLTGNFREDTLALISSLREAIALPENDPNKKAAQAEARKKLNDFFALYRRDDSLRSLSSFMTMQTALNSLAGHYSSYPNRPLPEKLKARLEQEFKQVELALDREAKS
notes: by the printed primers the natural stretch begins ANVPT and ends REAKS; No lipid modification, as the N-terminal cysteine is missing; the His tag is inferred; source: E. coli Overexpress C43, purified (IMAC, ResourceS ion exchange)
B2: Psb27 in the monomeric Psb27-PSII intermediate complex (natural protein, T. elongatus (endogenous), UniProt Q8DG60 22-134, looked up)
chain: CANVPTGLTGNFREDTLALISSLREAIALPENDPNKKAAQAEARKKLNDFFALYRRDDSLRSLSSFMTMQTALNSLAGHYSSYPNRPLPEKLKARLEQEFKQVELALDREAKS
modifications: N-terminal lipid modification
notes: Psb27 of T. elongatus (tll2462), as it stands in the isolated Psb27-PSII complex; source: endogenous, Psb27-PSII complex isolated from wild-type T. elongatus
B3: Im7-tagged lumenal domain of CP43 (residues 293-424) (domain or fragment)
chain: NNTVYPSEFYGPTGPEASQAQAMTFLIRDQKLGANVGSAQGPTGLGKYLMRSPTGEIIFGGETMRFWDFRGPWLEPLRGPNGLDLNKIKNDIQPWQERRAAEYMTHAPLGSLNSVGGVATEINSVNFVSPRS
modifications: Im7 fusion carrier omitted. Printed 293-424 taken as PDB 3ARC numbering, which is UniProt +12: printed K381, K339 and D383 then correspond to entry K369, K327 and D371, and the range spans the …
B4: Im7-tagged mature D1 C-terminus (mD1, residues 295-344) (domain or fragment)
chain: not shown
notes: D1 (PsbA) of photosystem II, mature C-terminus, residues 295-344; source: cell-free expression (RTS100 system), purified on the chip
B5: Im7-tagged C-terminal lumenal domain of D2 (residues 294-352) (domain or fragment)
chain: not shown
notes: D2 (PsbD) of photosystem II, C-terminus, residues 294-352; source: cell-free expression (RTS100 system), purified on the chip

What was measured:
Conditions in all cases: both partners purified
[1] = molecular target: T1, Im7-tagged lumenal domain of CP47 (residues 271-446) (UniProt Q8DIQ1 271-446); test: SPR; Biacore 3000, CM5 chip; Im7 fusion proteins captured on covalently bound DNase E7; Psb27 injected from 50 μM to 100 nM for 60 s in MBS-EP (20 mM MES, 150 mM NaCl, 3 mM EDTA, 0.05% Surfactant P20, pH 6.5), 30 μl/min, 298 K; steady-state responses fitted to a one-site binding isotherm
T1 construct: CP47 (PsbB) of photosystem II, lumenal domain, residues 271-446; also called CP47 domain; source: cell-free expression (RTS100 system), purified on the chip

[2] = molecular target: T2, CP43 in the monomeric Psb27-PSII intermediate complex (T. elongatus (endogenous), UniProt Q8DIF8 1-461); test: cross-linking; isolated monomeric Psb27-PSII complex without PsbO, PsbU and PsbV (2.4 μM) with a 1:1 mixture of BS3-H12/D12 (5 mM), 30 min on ice, 20 mM MES/NaOH, 10 mM CaCl2, 0.03% dodecyl-β-D-maltoside, pH 6.5; trypsin, LC-ESI-MS/MS, StavroX; found in light and heavy form
T2 construct: CP43 (PsbC) of photosystem II of T. elongatus; source: endogenous, Psb27-PSII complex isolated from wild-type T. elongatus

[3] = molecular target: B1; test: SPR; Biacore 3000, CM5 chip; Im7 fusion proteins captured on covalently bound DNase E7; Psb27 injected from 50 μM to 100 nM for 60 s in MBS-EP (20 mM MES, 150 mM NaCl, 3 mM EDTA, 0.05% Surfactant P20, pH 6.5), 30 μl/min, 298 K; steady-state responses fitted to a one-site binding isotherm

T1 sequence (Q8DIQ1 271-446): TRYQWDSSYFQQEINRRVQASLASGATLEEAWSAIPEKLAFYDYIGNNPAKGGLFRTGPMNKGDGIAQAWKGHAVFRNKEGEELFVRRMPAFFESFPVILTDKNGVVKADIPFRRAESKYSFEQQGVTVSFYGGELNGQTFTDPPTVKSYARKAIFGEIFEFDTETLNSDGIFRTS

Row | Binder | Kd [3] [µM] | also measured
1 | B1 | – | Kd [1]: ~100 µM
2 | B2 | – | binding result [2]: binds
3 | B3 | 21 | –
4 | B4 | 34 | –
5 | B5 | ~100 | –

Source: PMC4758025, “Critical Assessment of Protein Cross-Linking and Molecular Docking: An Updated Model for the Interaction Between Photosystem II and Psb27” (Frontiers in Plant Science, 2016)
